Target: T1, Strep-ChlN from Leptolyngbya boryana, expressed in E. coli (Leptolyngbya boryana, UniProt Q04607 1-467)
T1 construct: ChlN, subunit of DPOR (NB protein), Leptolyngbya boryana; Co-expressed with each ChlB variant; To my knowledge pASK-IBA5plus adds an N-terminal Strep-tag II; source: E. coli (chlN-chlB fragments in pASK-IBA5plus), in soluble fraction
Assay: pull-down; ChlB variants co-expressed with Strep-ChlN in E. coli; soluble fractions on a Strep-Tactin column in an anaerobic chamber; affinity-purified proteins on SDS-PAGE stained with Coomassie Brilliant Blue, yields quantitated
Conditions: partners not purified

T1 sequence (Q04607 whole entry, the tested form may be a part): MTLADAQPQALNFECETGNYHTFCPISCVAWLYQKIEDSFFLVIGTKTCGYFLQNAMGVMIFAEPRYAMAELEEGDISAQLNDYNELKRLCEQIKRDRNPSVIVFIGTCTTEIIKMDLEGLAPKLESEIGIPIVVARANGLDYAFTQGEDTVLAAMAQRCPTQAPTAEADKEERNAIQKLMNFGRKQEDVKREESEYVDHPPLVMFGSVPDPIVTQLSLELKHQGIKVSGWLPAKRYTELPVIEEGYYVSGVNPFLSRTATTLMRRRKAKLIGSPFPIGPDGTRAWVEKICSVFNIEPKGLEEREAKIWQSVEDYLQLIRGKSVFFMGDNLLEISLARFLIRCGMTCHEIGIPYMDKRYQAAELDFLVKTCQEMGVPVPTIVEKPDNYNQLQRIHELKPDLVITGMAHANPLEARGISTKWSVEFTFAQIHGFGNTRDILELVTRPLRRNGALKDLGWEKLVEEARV

B1: wild-type ChlB from Leptolyngbya boryana, expressed in E. coli (natural protein, UniProt P95463 1-508, looked up)
chain: MKLAYWMYAGPAHIGTLRIASSFKNVHAIMHAPLGDDYFNVMRSMLERERDYTPVTTSVVDRHVLARGSQEKVVDNITRKDAEEHPDLIVLTPTCTSSILQEDLQNFVERAQLEAKGDVMLADVNHYRVNELQAADRTLQQIVQFYIAKARKQGNLVTEKTEKPSVNIFGMTTLGFHNNHDATELKKLMSDLGIEVNAIVPAGASVHELKSLPRAWFNLVPYRETGLLAAEFLQQEFNMPYVDITPIGIVETARCIRKIQQVINAQGANVDYEPFIDQQTRFVSQAAWFSRSIDCQNLTGKKAVVFGDNTHAAALTKILAREMGIHVLLAGTYCKYDEAWFREQVSEYCDDVLVSDDNGQIADAIARLEPAAIFGTQMERHVGKRLDIPCGVIAAPIHIQNFPVGYKPFVGYEGSNQIVDLIYNSFTLGMEDHLLEIFGGHDTKEVITKSVSADSDLNWSKDGLAELNRIPGFVRGKVKRNTEKFARDRNITQITAEVLYAAKEAVGA
notes: ChlB, subunit of DPOR (NB protein), Leptolyngbya boryana; also called WT ChlB; WT control; source: E. coli (pHANB2), in soluble fraction
stoichiometry N: ~1

— PMC5443842, “The Effect of Two Amino acid Residue Substitutions via RNA Editing on Dark-operative Protochlorophyllide Oxidoreductase in the Black Pine Chloroplasts” (Scientific Reports, 2017)
